One block for each binder: values may come before it.
What was measured:
human Siglec-6-Fc = human Siglec-6-Fc (Homo sapiens, UniProt O43699); assay: SPR
human CD22-Fc = human CD22-Fc (Homo sapiens, UniProt P20273); assay: ELISA
human CD33-Fc = human CD33-Fc (Homo sapiens, UniProt P20138); assay: ELISA
human Siglec-8-Fc = human Siglec-8-Fc (Homo sapiens, UniProt Q9NYZ4); assay: ELISA
human Siglec-8-Fc, sequence (Q9NYZ4 17-363): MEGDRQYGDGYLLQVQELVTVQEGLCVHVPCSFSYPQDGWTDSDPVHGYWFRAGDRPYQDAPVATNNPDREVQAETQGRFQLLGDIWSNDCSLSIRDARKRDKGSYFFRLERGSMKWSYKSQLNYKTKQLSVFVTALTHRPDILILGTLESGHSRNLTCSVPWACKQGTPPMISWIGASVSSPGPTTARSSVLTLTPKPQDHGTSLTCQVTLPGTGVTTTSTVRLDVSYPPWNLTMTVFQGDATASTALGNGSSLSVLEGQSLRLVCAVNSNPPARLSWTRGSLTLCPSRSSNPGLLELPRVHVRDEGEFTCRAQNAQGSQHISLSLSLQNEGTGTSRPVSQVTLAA

human Siglec-6-Fc, sequence (O43699 27-347): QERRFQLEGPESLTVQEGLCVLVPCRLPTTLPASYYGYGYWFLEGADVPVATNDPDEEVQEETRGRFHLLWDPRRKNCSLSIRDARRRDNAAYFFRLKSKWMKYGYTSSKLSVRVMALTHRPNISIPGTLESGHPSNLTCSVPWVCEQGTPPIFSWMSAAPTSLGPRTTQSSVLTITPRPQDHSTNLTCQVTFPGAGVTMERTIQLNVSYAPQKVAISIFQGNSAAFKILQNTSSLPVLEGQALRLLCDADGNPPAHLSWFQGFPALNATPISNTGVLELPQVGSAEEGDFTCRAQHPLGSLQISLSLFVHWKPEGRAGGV
human CD33-Fc, sequence (P20138 18-259): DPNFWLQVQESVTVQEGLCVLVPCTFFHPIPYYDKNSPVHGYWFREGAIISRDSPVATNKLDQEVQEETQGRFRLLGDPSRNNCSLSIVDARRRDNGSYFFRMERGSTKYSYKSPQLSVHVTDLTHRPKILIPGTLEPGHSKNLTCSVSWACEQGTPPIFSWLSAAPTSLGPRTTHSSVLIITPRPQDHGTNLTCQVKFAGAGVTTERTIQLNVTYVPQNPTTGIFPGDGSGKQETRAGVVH
human CD22-Fc, sequence (P20273 20-687): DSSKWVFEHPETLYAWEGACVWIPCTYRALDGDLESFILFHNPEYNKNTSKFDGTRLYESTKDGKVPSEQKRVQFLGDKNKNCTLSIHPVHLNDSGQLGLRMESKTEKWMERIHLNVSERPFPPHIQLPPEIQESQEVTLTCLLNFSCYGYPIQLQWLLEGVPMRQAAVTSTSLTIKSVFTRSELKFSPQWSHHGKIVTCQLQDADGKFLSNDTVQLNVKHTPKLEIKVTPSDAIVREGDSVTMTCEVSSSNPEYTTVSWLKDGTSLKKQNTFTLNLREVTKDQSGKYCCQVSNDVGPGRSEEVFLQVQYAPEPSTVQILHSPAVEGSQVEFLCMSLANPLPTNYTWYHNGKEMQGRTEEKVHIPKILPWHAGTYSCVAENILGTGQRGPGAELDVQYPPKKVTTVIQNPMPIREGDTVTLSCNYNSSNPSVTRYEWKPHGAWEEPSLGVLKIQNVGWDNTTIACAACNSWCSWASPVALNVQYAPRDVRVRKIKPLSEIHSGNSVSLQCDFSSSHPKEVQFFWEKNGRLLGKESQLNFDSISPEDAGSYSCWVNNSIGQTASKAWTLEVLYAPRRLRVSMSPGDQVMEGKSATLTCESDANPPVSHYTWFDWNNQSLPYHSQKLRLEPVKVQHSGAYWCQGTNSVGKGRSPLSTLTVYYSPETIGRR

- Kd (human Siglec-6-Fc): 2.8 nM
B1: JML-1 Fab (Fab, V domains shown)
VH: KVQLLESGGGLVQPGRSLRLSCAASGFTFDDYGMHWVRQAPGKGLEWVSGISWNSGSIGYADSVKGRFTISRDNSKNTLYLQMNSLRAEDTAVYYCARGGQTIDIWGQGTMVTVSS
VL: not shown

- binding result (human CD22-Fc): no binding (tested: 1 μg/mL)
- binding result (human CD33-Fc): no binding (tested: 1 μg/mL)
- binding result (human Siglec-8-Fc): no binding (tested: 1 μg/mL)
B2: JML-1 IgG1 (antibody, V domains shown)
VH: B1 VH
VL: not shown

— PMC6125214 (Cancer immunology research, 2018)
